Reference: CN116041526A

Biological target: 重组蛋白SUMO-IgT CH1-CH2 (recombinant grass carp IgT heavy chain constant region CH1-CH2 domains fused to SUMO, from E. coli) (草鱼 (Ctenopharyngodon idella))
Experiment: titre of the antibody purified from ascites; assay not given, taken as ELISA on SUMO-IgT CH1-CH2

B1: 鼠抗草鱼IgT单克隆抗体 (mouse anti-grass carp IgT monoclonal antibody, secreted by hybridoma cell line IgT-6H6G11, CCTCC NO: C202288) (antibody, IgG2a, V domains shown)
VH: QVQLVETGGGLVRPGNSLKLSCVTSGFTFSNYRMHWLRQPPGKRLEWIAVITVKSDNYRARYAESVKGRFTISRDDSKSSVYLQMNRLREEDTATYFCSREGPYYGNWVAMDYWGQGTSVTVSS
VL: DVVLTQSPATLSVTPGDRVSLSCRASQSISNYLHWYQQKSHESPRLLIKYASQSISGIPSRFSGSGSGTGFTLSINSVETEDFGMYFCQQSHSWPYTFGGGTKLEIK
Question: How did the 效价 (titre) (dilution (1:x)) turn out when B1 was run?
Answer: 64000
